We go through 8 molecules from US5091176A, “Polymer-modified peptide drugs having enhanced biological and pharmacological activities” (W. R. Grace & Co.-Conn., priority 1990, dated 1992).

For data set [1], the target named is T1, alkaline phosphatase (Bos taurus, UniProt P19111). Nature of the data set: Residual enzymatic activity of alkaline phosphatase after polymer modification (Example V, Table I). In kind it is biochemical. Conditions: for alk phos activity dA/dt: alkaline phosphatase reacted 1 hour with prepolymer at the listed NCO:protein NH2 ratio, quenched with TRIS, dialyzed; for alk phos activity % Remaining: relative to control without prepolymer, prepolymer at the listed NCO:protein NH2 ratio. Here is the method:
A constant amount of protein was treated with increasing amount of prepolymer and the residual activity was determined. For comparison with Prepolymer A (high temperature) prepolymers, two other isocyanate prepolymers were used. One is a 550 dalton mono methoxy polyethylene oxide end capped with IPDI; the second is a diol ([…] P-24) of molecular weight 2200 comprising 80% ethylene oxide and 20% propylene oxide, end capped with IPDI. Thus the 3+functionality of Prepolymer A is compared to mono- and di-functional isocyanate derivatives.
After one hour at ambient temperature the residual isocyanate was quenched by addition of 9 ml of 0.5 M TRIS, pH 9.0. The samples were then dialyzed vs. 0.05 M sodium borate, pH 9.0 at 4° C. using 7000 MWCO dialysis tubing. Samples of each were assayed for enzymatic activity then stored frozen.
Table 1 lists the relative amounts of protein amine and polymer isocyanate reacted, and the residual enzymatic activity remaining.

Data set [2] is described as follows: Circulatory half-life of radioiodinated peptide and conjugate after tail vein injection. To be noted: mouse, in vivo. On the set-up: species or system C57B1/6 mice. As for the experimental part:
The conjugate from Example XIII was passed over a disposable Sephadex G25 column (PD10 from Pharmacia, Inc.) to separate free from polymer-bound peptide. Confirmation of the purity of the conjugate was obtained by HPLC. About 45 μg of conjugate (based on peptide) were radiolabeled with 125-iodine using the well known chloramine-T procedure. Free 125-iodine was separated from radiolabeled conjugate using a PD10 column. Of the original 30 μCi of Na^125 I used for the iodination, more than 23 μCi were incorporated into the conjugate.
Portions of the radiolabeled YRGDS-Prepolymer A conjugate from Example XIV were injected into the tail veins of C57B1/6 mice. As a control, YRGDS free peptide was radioiodinated by the procedure described in Example XIV and also injected. At various times blood was withdrawn from the animals and the amount of radioiodine remaining in the circulation determined using a gamma counter. A biphasic clearance curve (α:β) was obtained for both species. […] Thus by coupling the peptide to this polymer its clearance rate from the circulation is markedly extended.

For data set [3], the target named is T1, alkaline phosphatase. Nature of the data set: Residual enzyme activity of alkaline phosphatase-Prepolymer A conjugates, p-nitrophenylphosphate as substrate (Examples IX, X). Conditions: after 1 hour at ambient temperature. In kind it is biochemical, calf. On the set-up: Alkaline Phosphatase from calf intestine, Type I, was obtained from Sigma; purchased Sigma Type I; host or cells: calf intestine (tissue-derived).
Procedure: Alkaline Phosphatase from calf intestine, Type I, was obtained from Sigma. A 5 mg/ml solution was prepared in 0.01 M Tris, pH 8.0, containing 1mM CaCl2. To 0.2 ml of this enzyme solution was added 0.02 ml of a 50% (w/w) solution of Prepolymer A (low temperature) in acetonitrile. After 1 hour at ambient temperature the solution was assayed for residual enzyme activity and injected into an HPLC to evaluate the molecular size of the conjugate. […] Size analysis was performed by HPLC using a Zorbax GF250 column (DuPont) and a mobile phase consisting of 0.05 M sodium phosphate, pH 7.0, with 0.3 M NaCl at a flow rate of 0.5 ml/min.

Data set [4] deals with alkaline phosphatase. To be noted: alkaline phosphatase 50 ng/well; rabbit antisera, day 35 test bleed; FIG. 1.
Procedure: Antibody titers in the five rabbit sera from Example VI were determined by ELISA based on the following general procedure:
1) antigen is immobilized in 96-well PVC plates,
2) test antiserum is diluted with phosphate-TWEEN-chicken serum (PTCS) and incubated on the plate for 1 hour,
3) the plate is washed and Biotin-Protein A is added for 1 hour,
4) the plate is washed and glucose oxidase-avidin is added for 15 minutes.
5) the plate is washed and substrate (glucose+peroxidase+ABTS) is added. Absorbance at 405 nm is read at intervals on a plate reader.

Regarding alkaline phosphatase, in data set [1], the “alk phos activity dA/dt” value is 0.1200 and the “alk phos activity % Remaining” value was 100.0%.

As for tyr-arg-gly-aspser [YRGDS free peptide], in data set [2], the “half-life of the initial phase (t178 α)” value was determined as 30 s, the “label cleared in the initial phase” value is on record as “about 75%” and the “second phase half life (t1/2 β)” value was 2 hours 40 minutes.

B1: A4: alkaline phosphatase coupled to mono-functional IPDI-capped methoxy polyethylene oxide, NCO:NH2 14.9:1 (conjugate, UniProt P19111 20-506, looked up)
Intestinal-type alkaline …: LVPVEEEDPAFWNRQAAQALDVAKKLQPIQTAAKNVILFLGDGMGVPTVTATRILKGQMNGKLGPETPLAMDQFPYVALSKTYNVDRQVPDSAGTATAYLCGVKGNYRTIGVSAAARYNQCKTTRGNEVTSVMNRAKKAGKSVGVVTTTRVQHASPAGAYAHTVNRNWYSDADLPADAQMNGCQDIAAQLVNNMDIDVILGGGRKYMFPVGTPDPEYPDDASVNGVRKRKQNLVQAWQAKHQGAQYVWNRTALLQAADDSSVTHLMGLFEPADMKYNVQQDHTKDPTLQEMTEVALRVVSRNPRGFYLFVEGGRIDHGHHDDKAYMALTEAGMFDNAIAKANELTSELDTLILVTADHSHVFSFGGYTLRGTSIFGLAPSKALDSKSYTSILYGNGPGYALGGGSRPDVNDSTSEDPSYQQQAAVPQASETHGGEDVAVFARGPQAHLVHGVEEETFVAHIMAFAGCVEPYTDCNLPAPTTATSIPD
modifications: coupled to IPDI-capped methoxy PEG
For the molecule B1, in data set [1], the “alk phos activity dA/dt” value was 0.0313 and the “alk phos activity % Remaining” value amounted to 26.1%.

B2: B2: alkaline phosphatase coupled to IPDI-capped diol TAKELACK P-24, NCO:NH2 2.7:1 (conjugate, UniProt P19111 20-506, looked up)
Intestinal-type alkaline …: B1 Intestinal-type alkaline …
modifications: coupled to IPDI-capped diol polymer
As for B2, in data set [1], the “alk phos activity dA/dt” value was 0.0604 and the “alk phos activity % Remaining” value is listed as 50.3%.

B3: B3: alkaline phosphatase coupled to IPDI-capped diol TAKELACK P-24, NCO:NH2 6.8:1 (conjugate, UniProt P19111 20-506, looked up)
Intestinal-type alkaline …: B1 Intestinal-type alkaline …
modifications: coupled to IPDI-capped diol polymer
For the molecule B3, in data set [1], the “alk phos activity dA/dt” value is on record as 0.0389 and the “alk phos activity % Remaining” value was found to be 32.4%.

B4: Example IX: calf intestine alkaline phosphatase conjugated with Prepolymer A (low temperature), 1 hour reaction (conjugate, UniProt P19111 20-506, looked up)
Intestinal-type alkaline …: B1 Intestinal-type alkaline …
modifications: conjugated with Prepolymer A
Regarding B4, the “enzymatic activity remained after the reaction” value in data set [3] worked out at 54%.

B5: C1: alkaline phosphatase coupled to tri-functional Prepolymer A (high temperature), NCO:NH2 0.7:1 (conjugate, UniProt P19111 20-506, looked up)
Intestinal-type alkaline …: B1 Intestinal-type alkaline …
modifications: coupled to Prepolymer A
For the molecule B5, the “binding of the antiserum raised against the antigen to immobilized alkaline phosphatase (immunogenicity)” value in data set [4] is on record as “negligible binding”.

B6: C2: alkaline phosphatase coupled to tri-functional Prepolymer A (high temperature), NCO:NH2 1.3:1 (conjugate, UniProt P19111 20-506, looked up)
Intestinal-type alkaline …: B1 Intestinal-type alkaline …
modifications: coupled to Prepolymer A
Take B6: in data set [1], the “alk phos activity dA/dt” value was determined as 0.0688 and the “alk phos activity % Remaining” value is listed as 57.5%.
